Assay: soluble on expression in E. coli; label from the status in PepcDB or PDB records

Sequence | soluble on expression in E. coli
MSPHYLRQVKESSGSRLIQQRLLHQQQPLHPEWAALAKKQLKGKNPEDLIWHTPEGISIKPLYSKRDTMDLPEELPGVKPFTRGPYPTMYTFRPWTIRQYAGFSTVEESNKFYKDNIKAGQQGLSVAFDLATHRGYDSDNPRVRGDVGMAGVAIDTVEDTKILFDGIPLEKMSVSMTMNGAVIPVLANFIVTGEEQGVPKEKLTGTIQNDILKEFMVRNTYIFPPEPSMKIIADIFEYTAKHMPKFNSISISGYHMQEAGADAILELAYTLADGLEYSRTGLQAGLTIDEFAPRLSFFWGIGMNFYMEIAKMRAGRRLWAHLIEKMFQPKNSKSLLLRAHCQTSGWSLTEQDPYNNIVRTAIEAMAAVFGGTQSLHTNSFDEALGLPTVKSARIARNTQIIIQEESGIPKVADPWGGSYMMECLTNDVYDAALKLINEIEEMGGMAKAVAEGIPKLRIEECAARRQARIDSGSEVIVGVNKYQLEKEDTVEVLAIDNTSVRNRQIEKLKKIKSSRDQALAERCLAALTECAASGDGNILALAVDASRARCTVGEITDALKKVFGEHKANDRMVSGAYRQEFGESKEITSAIKRVHKFMEREGRRPRLLVAKMGQDGHDRGAKVIATGFADLGFDVDIGPLFQTPREVAQQAVDADVHAVGVSTLAAGHKTLVPELIKELNSLGRPDILVMCGGVIPPQDYEFLFEVGVSNVFGPGTRIPKAAVQVLDDIEKCLEKKQQSVAENLYFQSHHHHHHDYKDDDDK | soluble
MGSDKIHHHHHHMISQFIDRKRELAILEREWKNTPSFVVIYGRRRVGKTRLLVEFSKGKKVFFYTFMEGTKESQVKSLAKELVDFFNDEIFLSFSDWYPLFKYLSGKLMEKTLFVFDEFTYAVKSDRSILSALQRVWDHELSYKPVMLVLSGSLMGIMEDNVLSHSSPLYGRRTAGFRLRSLGLFPSLRFFKSPIEGLKFYMLLGGIPAYLIIASRYETVGEFVEREFLTPEGYFYDEPYIVLSELKELKTYFSILSAMSSGRRRPSEIASEVGLEGRKIYPYLETLIRLGFVERELPIARKEKRGLYRISDPMLMSWFSLIYPNRTEIELGTITLERVEKILQRIFSFRFEDVSREFLVEMNKAGKLPFRFTKIGRWWYKGEEIDLVALNEDEEKALFIEVKWKDLKEREVKGILKDLEKKAGLVGLDGWDKNYGLIEKSIERKEKLREENYLVWDLKDFDALKILSQ | not soluble
MGESGTKSRFPIRVQLEANKQYYWCRCGLSQSQPFCDGAHRGTGMNPVVFVVRETSPVWLCVCKETKNIPFCDCFRTDLEHHHHHH | not soluble
GPGSMIHPMAVDRLLPSQEAAELIELTREIADKVLDPIVDRHEKDETYPEGVFEQLGAAGLLSLPQPEEWGGGGQPYEVYLQVLEEIAARWASVAVAVSVHSLSSHPLLVFGTEEQKKRWLPGMLSGEQIGAYSLSEPQAGSDAAALRCAATPTDGGYVINGSKSWITHGGKADFYTLFARTGEGSRGVSCFLVPADQPGLSFGKPEEKMGLHAVPTTSAFYDNARIDADRRIGEEGQGLQIAFSALDSGRLGIAAVATGLAQAALDEAVAYANERTAFGRKIIDHQGLGFLLADMAAAVATARATYLDAARRRDQGRPYSQQASIAKLTATDAAMKVTTDAVQVFGGVGYTRDYRVERYMREAKIMQIFEGTNQIQRLVIARGLTR | soluble
SSNAKWDQWSSDWQTWNAKWDQWSNDWNAWRSDWQAWKDDWARWNQRWDNWAT | soluble
GPGSMDDLVAVRIKDGIFAGNAGAAADKTLLIMNKITHIINCAGAEVADFFLGEPGFSYLSFPWKDAAGSVCTTILFDAGDDNIHRVVQFIDEALAAGECVLVHSVYGNSRSPALIAAYMIMKYGWKLESALLYLKMAHPDSDIKPHFQRQLRQFAKRHEVDHDIFAQDVDDSQFGLDNDQWMLRNTLLNGLLYKDQMANDLYRQCAEKVDVGNPVNGKAKKAHITFVDTKKGTDA | not soluble
MPDESAQVRFLIVGRTGWIANMVAELLEQRGERYAFASFRLEQREACELELDALRPQRVLNCAGVTGRPNVDWCEDHRRETVRSNVLGVLNLADCCASRGIHLTNFATGCLYHYDDGEHRPTAEGGRPFTEDDPPNFFGSYYSRTKAMVEELLRSAFDNVLILRLRMPVSDDLSPRSFVAKIARYEKVVNIPNSMTVLTELLPVALDMSERGLTGVYNFTNPGSISHNEVLELYRKYIDPKFQWKNFTLEEQAKILKAGRSNCELDVRKLLRDNPGAQIREVHAAMEEVFRRMQAKGVKPLAAP | not soluble
MIDILLCDVIITIGDVEIKAHKTILAAGSTYFKTMFTTPMIARDLATRVNLQMFDKMSSKILYSTYTIGI | not soluble
MSLRTNEHNFHNIEEEIKHVAVYLRLSRGEDESELDNHKTRLLNRCELNNWSYELYKEIGSGSTIDDRPVMQKLLTDVEKNLYDAVLVVDLDRLSRGNGTDNDRILYSMKVSETLIVVESPYQVLDANNESDEEIILFKGFFARFEFKQINKRMREGKKLAQSRGQWVNSVTPYGYIVNKTTKKLTPSEEEAKVVIMIKDFFFEGKSTSDIAWELNKRKIKPRRATEWRSSSIANILQNEVYVGNIVYNKSVGNKKPSKSKTRVTTPYRRLPEEEWRRVYNAHQPLYSKEEFDRIKQYFECNVKSHKGSEGHHHHHH | soluble
MNFQKVCSLDELWEGDMTEVEVAGHVIVLVRPEGGEPRAFQGICPHQDIPLAEGKFDGRVLMCRAHQWTFDANTGKGINPGGARLAEYALKVEGDDILVAVEGVEPLFANC | soluble
MNKNKPFIVVIVGPTASGKTELSIELAKRINGEIISGDSMQVYKHMNIGTAKVTPEEMDGIPHHLIDILNPDDTFSAYEFKRLAEDLITDITNRGKVPIIAGGTGLYIQSLIYNYELEDETVTPAQLSIVKQKLSALEHLDNQQLHDYLAQFDAVSAENIHPNNRQRVLRAIEYYLKTKKLLSNRKKVQQFTENYDTLLLGIEMSRKTLYSRINKRVDIMLDHGLFREVQQLVEQGYESCQSMQAIGYKELIPVINGQMIYEDAVNDLKQHSRQYAKRQMTWFKNKMSVHWLDKENMSLQMMLDEITTQIKLEHHHHHH | soluble
MAHHHHHHMGGVTLHKVNTCPWWQRKNYEIEKSFFLRSAPPPLRKKRNQLRQYNHAENNSYTNIYTIKNPLKCKVVDKVSLVRQNALHEVYNVEIDHGGMFKYLEGHSCGVIPYYEDLIQADDKNNSQEGRKKRGNKFARLYSISSTNAENLSFAIRIHSYQEEENGCMQHKYGYCSGYIKELKKNDNIYITGAHGCFLLPDNVSEKNTNLILIATGTGISPYISFLKKIWGYQPGIHQQKKTYNGQVYLYYGVYYEDSILYLPELKYFQNMYPNNFHVEYVFSSIKNSDGTSHHVQDEIYKKRENFLRLFNELNCELYICGHKSIRAKIMDILKGENPVLDSEKKKRVHVEVY | not soluble
MGPRFQPDDTLYKRRNTLKVEYVPDDIVGRDNEIEEYEAALQPIINGEYPDNIFIYGKTGVGKTAVTNFLLNELRESADHFEVDLTVISLNCDGLSTSYQAAISLVNNLRGHENHIAETGHPQSKVYRLLWNELNKLSGSVIIVLDEIDHITDDTFLYQITRADNNGYIDNIQLGVIGISNDSTFREQLDAKVQSSLCETEISFPPYGTEELQKVLEQRAEIAFHESALEDGVIPLCAALGRQDGGDARRAITLLRKAGDLARTENANSVTTDHVERAQEKLEAQQSMDIMRDLTEHEQLTLYALTTLAAEGETPARSRIVYQRYKELCEFQGREPRTARRMRSFLSDFEILNLTLSEMEHRGQDGGTYRQHELNRDIATVVDALQTIIGEFGAHQSIIEYLPDSGEEFATM | not soluble
MSLPVKNLRHLPKAHLHLHLEGAMRPATLTEFCERYKIKRPSDTRGKQFSNFAAFNEVYRAASDSIRTRQDLARVIQEVAEDAAKDGATWIEPAFDADRYTVLRADKSLRLFETPYEGWLFALKAARNASEKTGVGISFISAIDRTRPIDQANERAKLTTNLIASQKHQITAKNINGGEPYAGIIGLGLHGNEEGYPPEIFAEAFQIVTKKTEALSIPHAGEIAPTPGKGPESVEKAIDILSASRIQHGVLAIQDEVLIEKIKEKNICLDVCPSSNIQLSVFPNIQAHPLPLLIESGVSCSLGSDDPLLFGPSLLDEFELCREQMRLSDNTLAQLARNSFKYSGAPKKIVEQGLRDIDTWLNEGHHHHHH | soluble
MRNNPLIPKSKLPNLGTTIFTQMSALAQKHQAINLSQGFPDFDGPRYLHERLAYHVAQGANQYAPMTGAQALREAIADKTAEIYGYRPDDVSDITVTAGATEALYAAITALVRAGDEVICFDPSYDSYAPAVALSGGVLKRIALTPPHFRVDWQAFSALLSERTRLVILNTPHNPTATVWRQADIEALWQAIGEREIYVLSDEVYEHICFAAEGHASVLAHPQLRERAVAVSSFGKTFHMTGWKIGYCVAPAAISAEIRKVHQYLTFCVNTPAQLALADMLRAAPEHYRALPDFYRKKRDVLVNALAQSRLKVLPCEGTYFLLIDYSAVSTLNDVEFCQWLTEEVGVAAIPLSVFCAAPFPHQLIRLCFAKQESTLLAAAERLCKL | not soluble
MNFSGKYQVQSQENFEPFMKAMGLPEDLIQKGKDIKGVSEIVHEGKKVKLTITYGSKVIHNEFTLGEECELETMTGEKVKAVVKMEGDNKMVTTFKGIKSVTEFNGDTITNTMTLGDIVYKRVSKRI | soluble
MGSDKIHHHHHHMILGEIMEVLAFKNQSLIDHVNDMVKYWERIKYRYLKTIKRALEALNIKLDIEKVDEFMKILIKLHDIGKASKIYQRAIINDQEKLMGFRHELVSAYYTYHILLKKFGDKNLAFIGALTVMLHHEPIIMGQIRNLKKKELTAEVVLDKLKKFDGMIEDFEDLIKKLIGYSIGDIIKNDSNKDDIIRFVIEMSVRARHTPNSEKLRFIVGTLLLPLVMCDYKGAESREGKAPKFAEVLEVESYVI | not soluble
MLGVFQKRCASTAPLIRPIQRVLVANRGEIAIRVQNTARKMGIETVAVFSDADRNSLFVKKADKAYHIGPPLAAESYLNMDKIINSALRSGAQAIHPGYGFLSENAGFAEKCAQAGLVFIGPPAQAIRDMGAKNVSKQIMEDAKVPVVKGFHGEDQSDANLKKKSAEIGYPVMLKAVYGGGGKGMRIAWNEAEFEEKLASARNEAKKSFGNDEMLVEKFVEKPRHVEVQVFGDHHGNYVHLWERDCSVQRRHQKIIEEAPAPNMEHDTRVKLGESAVRAAAAVGYVGAGTVEFIMDPRGEFYFMEMNTRLQVEHPVSEAITGTDLVEWQLRVAQGEKLPLKQSEIPLNGHAFECRVYAEDTRKGAFMPTAGRLNYVDFPEDARIDTGVVSGDEVSIHYDPMIAKVVVWGQDRAVAAAKLESALARTRISGLPTNIDFVRRVLAHPEFAAGNVYTDFIPDHQKELFAESETPAEIYVESAVAHALAALQKSDAGVFQNLSFFRMNLSPKYIFKIDGKDVSIRFDSDSRLTVSYDGNSYETLLNDIESTTDGSFKFTLEANGRRWSTVVKNLGNSLMVNGVGQNEYETPQIHETFDSLSGGAASHSAVAPMPGIIEKILVKPGEQVTTGQALVVMTAMKMEYIIRAPEDSTVEHIKCQAGKNVPKNAVLVQFA | not soluble
MLKFFAALLFAVATMAQAQDNTLHTDLPLDYLAQANVETPDRPLVIFIHGYGSNAADLFGLKEHLPAGFNYLSVQAPVELQADSYKWFTQKKGGTDYDGVTEDLKSSGKRLTDFITQATEKFRTQPGKVFLVGFSQGAMMSYEVALRQPTLVGGFAALSGRLLPVVKSEVNASDDLKALKVFIGHGVQDRQVAYASGPQAEATLKSLGLTPQFHGYEGLGHSINEAEVVDLANWLQQSSR | not soluble

From the DeepSol protein solubility set
